Assays:
Conditions in all cases: both partners purified
[1] = biological target: SARS-CoV-2 S1-His protein (SARS-CoV-2); assay: ELISA
[2] = biological target: SARS-CoV-2 S1-hFc protein (SARS-CoV-2); assay: ELISA
[3] = biological target: T1, recombinant SARS-CoV-2 S1 protein (Kactus Biosystems) (SARS-CoV-2, original wild type …, UniProt P0DTC2); assay: SPR
[4] = biological target: T1, recombinant SARS-CoV-2 S1 protein …; assay: SPR; remark: listed apart in the source

B1: 2B11 monoclonal antibody (full-length human IgG1) (antibody, V domains shown)
VH: EVQLVESGGGLVQPGGSLRLSCAASEITVSSNYMNWVRQAPGKGLEWVSVIYSGGTTYYADSVKGRFTISRDNSENTLYLQMNSLRAEDTAVYYCARDLMEVGGMDVWGQGTTVTVSS
VL: LPVLTQPPSASGTPGQRVTISCSGSSSNVENDNVNWFQQQVPGSTPKLVIYNDRLRPSGVPDRFSGSKSGTSAYLAISGLQSEDEADYYCVAWDASLQSYVFGTGTKVTVL
With B1 the EC50 [1] was 0.051 nM, the IC50 [2] was 2.79 nM and the Kd [3] was 4.76 nM. The Kd [4] was 4.67 nM.

Reference: PMC8315086 (Cell Discovery, 2021)
